One test concerns the target T1, HLA-A*02:01 (human).
T1 construct: also called HLA-A2
Kind of test: stable pHLA monomer refolding.

The target of test [1] is T2, Jchain (joining chain) peptide on HLA-A*01:01 (human).
T2 peptide: YTAVVPLVY
Kind of test: multimer staining.

The next test deals with HLA-B*40:01 (human). The test can be described thus: stable pHLA monomer refolding.
In test [2] the target is T3, Jchain (joining chain) peptide on HLA-A*03:01 (human).
T3 peptide: ISDPTSPLRTR
The test can be described thus: NSG mice with established wild-type HLA-A3pos U266 + luciferase; TCR-transduced CD8 T cells i.v.; bioluminescence; complete eradication in hIL-7/hIL-15 NSG mice (FIG. 15); full-length, on cells.

Test [3] addresses T4, Jchain (joining chain) peptide on HLA-A*11:01 (human).
T4 peptide: ISDPTSPLRTR
Kind of test: killing.

Test [4] addresses T5, Jchain (joining chain) peptide on HLA-A*24:02 (human).
T5 peptide: CYTAVVPLV
Kind of test: NSG mice with established U266 + HLA-A24 + luciferase; 3-6x10^6 TCR-transduced CD8 T cells i.v.; bioluminescence; full-length, on cells.
Excerpt: (§1) Subsequently, mice were infused with 3-6×10\hat{ }6 Jchain HLA-A1, -A24, -A3 or -A11 TCR or irrelevant CMV TCR Td CD8 T cells after which tumor outgrowth was followed measuring bioluminescence at regular intervals (FIG. 7A,B).

In a further test the target is T6, HLA-A*01:01 (human).
T6 construct: also called HLA-A1
Kind of test: stable pHLA monomer refolding.

For the next test, the target named is HLA-A*11:01 (human). Kind of test: stable pHLA monomer refolding.
The next test deals with T7, HLA-A*03:01 (human).
T7 construct: also called HLA-A3
Kind of test: stable pHLA monomer refolding.

A further test addresses HLA-A*24:02 (human). The test can be described thus: stable pHLA monomer refolding.
Test [5] deals with T3, Jchain (joining chain) peptide on …. Kind of test: killing.
The target of test [6] is T4, Jchain (joining chain) peptide on …. The test can be described thus: NSG mice with established U266 + HLA-A11 + luciferase; 3-6x10^6 TCR-transduced CD8 T cells i.v.; bioluminescence; full-length, on cells.
Excerpt: as §1

Consider YTAVVPLV [Jchain derived peptide YTAVVPLV (SEQ ID NO: 105)], for which the binding result in the test with HLA-A*02:01 was “binds”.

B1: TCR clone 13F6.6 (TCR, V domains shown)
Valpha: AQSVSQHNHHVILSEAASLELGCNYSYGGTVNLFWYVQYPGQHLQLLLKYFSGDPLVKGIKGFEAEFIKSKFSFNLRKPSVQWSDTAEYFCAASSGGYQKVTFGIGTKLQVIP
Vbeta: DVKVTQSSRYLVKRTGEKVFLECVQDMDHENMFWYRQDPGLGLRLIYFSYDVKMKEKGDIPEGYSVSREKKERFSLILESASTNQTSMYLCASSLRREVGDTQYFGPGTRLTVL
For B1, the binding result in [1] is on record as “recognises”.
For the molecule GETKMVETAL (also called GET peptide) [Jchain derived peptide GETKMVETAL (SEQ ID NO: 107)], the binding result with HLA-B*40:01 is “binds”.

B2: TCR clone 5C8.16 (TCR, V domains shown)
Valpha: AQSVTQLDSHVSVSEGTPVLLRCNYSSSYSPSLFWYVQHPNKGLQLLLKYTSAATLVKGINGFEAEFKKSETSFHLTKPSAHMSDAAEYFCVVKWADSWGKLQFGAGTQVVVTP
Vbeta: AAGVIQSPRHLIKEKRETATLKCYPIPRHDTVYWYQQGPGQDPQFLISFYEKMQSDKGSIPDRFSAQQFSDYHSELNMSSLELGDSALYFCASSLGTGNFYEQYFGPGTRLTVT
Take B2: in test [2], the “fold lower tumor load than in CMV TCR control mice” value (shortened to “fold lower tumor load than”) was found to be 70 fold. Also, in [3], the binding result is given as “no recognition”.

B3: TCR clone 10H11.11 (TCR, V domains shown)
Valpha: EDQVTQSPEALRLQEGESSSLNCSYTVSGLRGLFWYRQDPGKGPEFLFTLYSAGEEKEKERLKATLTKKESFLHITAPKPEDSATYLCAVLSGGSYIPTFGRGTSLIVHP
Vbeta: DTGVSQDPRHKITKRGQNVTFRCDPISEHNRLYWYRQTLGQGPEFLTYFQNEAQLEKSRLLSDRFSAERPKGSFSTLEIQRTEQGDSAMYLCASSPLLRDSEEKLFFGSGTQLSVL
As to B3, the “fold lower tumor load than” value in test [4] came out at 209 fold.
Take TAVVPLVY (also called TAV peptide) [Jchain derived peptide TAVVPLVY (SEQ ID NO: 102)]: the binding result in the test with HLA-A*01:01 is given as “binds”.
As to ISDPTSPLRTR (also called ISD peptide) [Jchain derived peptide ISDPTSPLRTR (SEQ ID NO: 101)], the binding result with HLA-A*11:01 and with HLA-A*03:01 was “binds” in each case.
In the case of VLAVFIKAV (also called VLA2 peptide) [Jchain derived peptide VLAVFIKAV (SEQ ID NO: 104)], the binding result with HLA-A*02:01 is reported as “binds”.
Take VLAVFIKAVHV (also called VLA1 peptide) [Jchain derived peptide VLAVFIKAVHV (SEQ ID NO: 103)]: the binding result with HLA-A*02:01 was “binds”.

B4: TCR clone 4G8.8 (TCR, V domains shown)
Valpha: AQTVTQSQPEMSVQEAETVTLSCTYDTSENNYYLFWYKQPPSRQMILVIRQEAYKQQNATENRFSVNFQKAAKSFSLKISDSQLGDTAMYFCAFMKHVEYGNKLVFGAGTILRVKS
Vbeta: DAGITQSPRHKVTETGTPVTLRCHQTENHRYMYWYRQDPGHGLRLIHYSYGVKDTDKGEVSDGYSVSRSKTEDFLLTLESATSSQTSVYFCAARDSANEKLFFGSGTQLSVL
With B4, the binding result in test [1] was “recognises”.
Consider RIIVPLNNR (also called RII peptide) [Jchain derived peptide RIIVPLNNR (SEQ ID NO: 106)], for which the binding result in the test with HLA-A*11:01 is “binds”.
On to CYTAVVPLV (also called CYT peptide) [Jchain derived peptide CYTAVVPLV (SEQ ID NO: 100)], for which the binding result with HLA-A*24:02 was “binds”.

B5: TCR clone 16C7.9 (TCR, V domains shown)
Valpha: AQKITQTQPGMFVQEKEAVTLDCTYDTSDPSYGLFWYKQPSSGEMIFLIYQGSYDQQNATEGRYSLNFQKARKSANLVISASQLGDSAMYFCAMREDYTGGFKTIFGAGTRLFVKA
Vbeta: GAGVSQTPSNKVTEKGKYVELRCDPISGHTALYWYRQSLGQGPEFLIYFQGTGAADDSGLPNDRFFAVRPEGSVSTLKIQRTERGDSAVYLCASSLISGGNEQFFGPGTRLTVL
As to B5, the binding result in test [5] is “no recognition”. For the same molecule, in test [6], the “fold lower tumor load than” value amounted to 190 fold.
